Target: recombinant Fc-fused SARS-CoV-2 RBD protein (Severe acute respiratory syndrome …, UniProt P0DTC2)
Assay: SPR
Conditions: both partners purified

Binder	Kd [nM]
AZD8895-450 (antibody, V domains shown) VH: QMQLVQSGPEVKKPGTSVKVSCKASGFTFMSSAVQWVRQARGQRLEWIGWIVIGSGNTNYAQKFQERVTITRDMSTSTAYMELSSLRSEDTAVYYCAANYCSSTICSDGMDIWGQGTMVTVSS VL: not shown	16.5
AZD8895-449 (antibody, V domains shown) VH: QMQLVQSGPEVKKPGTSVKVSCKASGFTFMSSAVQWVRQARGQRLEWIGWIVIGSGNTNYAQKFQERVTITRDMSTSTAYMELSSLRSEDTAVYYCAAPYCSLTNCSDGFDIWGQGTMVTVSS VL: not shown	13.2
AZD8895-275 (antibody, V domains shown) VH: QMQLVQSGPEVKKPGTSVKVSCKASGFTFMSSAVQWVRQARGQRLEWIGWIVIGSGNTNYAQKFQERVTITRDMSTSTAYMELSSLRSEDTAVYYCAAPYCSLTYCSDGFDIWGQGTMVTVSS VL: not shown	8.42
AZD8895 (antibody, V domains shown, also called seed antibody AZD8895; seed mAb; source: HEK293, transient transfection, purified (HiTrap Protein A HP)) VH: QMQLVQSGPEVKKPGTSVKVSCKASGFTFMSSAVQWVRQARGQRLEWIGWIVIGSGNTNYAQKFQERVTITRDMSTSTAYMELSSLRSEDTAVYYCAAPYCSSISCNDGFDIWGQGTMVTVSS VL: not shown	12.6
AZD8895-25 (antibody, V domains shown) VH: QMQLVQSGPEVKKPGTSVKVSCKASGFTFMSSAVQWVRQARGQRLEWIGWIVIGSGNTNYAQKFQERVTITRDMSTSTAYMELSSLRSEDTAVYYCAAPYCSLTCCSDGFDIWGQGTMVTVSS VL: not shown	4.79

Source: article PMC12847411, “High-affinity optimization potential of the virus neutralizing antibody with twin cysteine-stabilized complementarity-determining region 3” (Frontiers in Cellular and Infection Microbiology, 2025)
